Laboratory results published in paper PMC12560621, “β-Branching in the biosynthesis of bongkrekic acid: a complex affair” (RSC Advances, 2025).

How the values were obtained:
[1] = biological target: BonA_ACP1a (Burkholderia gladioli pv. cocovenenans)
[2] = biological target: BonH (Burkholderia gladioli pv. cocovenenans); assay: SEC; analytical size exclusion chromatography of the purified protein in solution; conditions in the supplementary information
[3] = biological target: BonA_ACP2a (Burkholderia gladioli pv. cocovenenans)
[4] = biological target: the molecule itself; assay: SEC; analytical size exclusion chromatography of the purified protein in solution; conditions in the supplementary information

Molecule: BonH (enzyme)
- BonH-catalysed conversion of HMG-BonA ACP1a to the MG-ACP product, by ESMS [1]: 15%
- stoichiometry N [2]: 3

Molecule: BonI (enzyme)
- BonI-catalysed decarboxylation of MG-BonA ACP2a (made by BonH from HMG-BonA ACP2a) to endo-β-methyl-BonA ACP2a, by ESMS and Ppant ejection [3]: 50%
- BonI-catalysed conversion (with BonH) of HMG-BonA ACP1a to the endo-β-methyl-ACP product, by ESMS [1]: 15%

B1: BonI (enzyme)
chain: MSRPAHFHGSATEMSERVVHLAELEPGIVRITLEDRTHKNAFSDRLLNGIVEAFAEVAANPSWKAVILTGYDTYFCTGGTQDMLLKLSKGEGRFTDFPIYNLPLTCEIPVIAAMQGHAVGGGLALGLFADFVVLSRESVYTANFMKYGFTPGFGSTLVMREKLGLPLAQALLMTAANYRGDELARHGIAFPVLPRAEVAAHALDIARQLADKPRHSLVTLKAHLNAPLRAMLPEVTAREVEMHERTFPHPEVQQRIRALFGS
- stoichiometry N [4]: 3
